Test results published in US20220289791A1, “LACTATE DEHYDROGENASE INHIBITOR POLYPEPTIDES FOR USE IN THE TREATMENT OF CANCER” (UNIVERSITÉ CATHOLIQUE DE LOUVAIN, priority 2019, published 2022).
*1 amine or outer side, *2 acyl side, *3 side chain or, on linkers, in order; H or OH if unused. Where a SMILES comes first, the peptide text is derived from it. Bridges are numbered along the chain shown (N, C = ends). Where no end group is shown, it is not given here. [ ]: non-standard residue; d: D form. α,α'‑bisbromoxylene = α,α'-bisbromoxylene, a linker that cyclises the cysteines (bisbromoxylene cysteine cyclisation); C6F4(1,4-diyl) = Fc1c(F)c([*:2])c(F)c(F)c1[*:1]; mXylylene = c1cc(C[*:1])cc(C[*:2])c1; oXylylene = c1ccc(C[*:2])c(C[*:1])c1; pXylylene = c1cc(C[*:2])ccc1C[*:1]; Ala(cPr) = N[C@@H](CC1CC1)C(=O)O; tBuAla = CC(C)(C)C[C@H](N)C(=O)O; Aib = CC(C)(N)C(=O)O

Tests used:
LDHBtr [1] = biological target: T1, LDHBtr (Homo sapiens, UniProt P07195); assay: NMR WaterLOGSY binding screening
T1 sequence (P07195 21-334): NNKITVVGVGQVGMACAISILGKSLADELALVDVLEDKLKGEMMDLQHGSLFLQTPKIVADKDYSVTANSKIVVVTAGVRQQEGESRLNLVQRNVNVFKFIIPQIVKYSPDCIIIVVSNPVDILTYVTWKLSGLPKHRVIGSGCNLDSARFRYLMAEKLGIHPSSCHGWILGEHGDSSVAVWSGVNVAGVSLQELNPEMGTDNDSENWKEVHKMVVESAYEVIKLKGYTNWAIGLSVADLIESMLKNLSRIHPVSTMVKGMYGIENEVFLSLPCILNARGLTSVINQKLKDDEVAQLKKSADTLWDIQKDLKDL
Procedure: All experiments were acquired on a Bruker Ascend Avance III 600 MHz equipped with a broadband cryoprobe (Bruker® GmBH, Germany)
NMR WaterLOGSY was performed on samples prepared in 10% D2O buffer containing 50 mM sodium phosphate buffer, pH 7.6 and 100 mM NaCl. The concentration of LDH subunits was 15-20 μM. Ligand binding was detected using a NMR WaterLOGSY ephogsygpno.2 advance-version sequence with a […]. Water signal suppression was achieved using excitation sculpting scheme and a 50 ms spinlock was used to suppress protein background signal. For each experiment, 512 scans were collected to yield a 16K points FID. NMR WaterLOGSY intensity was corrected by plotting the intensity difference of the ligand NMR WaterLOGSY spectra recorded in the presence and absence of protein.
For NMR WaterLOGSY screening experiments a correction factor was applied to account for slight concentration variation between samples. To do so, 8 scans 1H NMR spectra with 50 ms spinlock were recorded before NMR WaterLOGSY experiments. The intensity ratio of the aliphatic region (0.700 ppm to 0.955 ppm) with and without protein was used as a correction factor to compare the NMR WaterLOGSY intensity of the polypeptides of interest with and without LDH subunits. An arbitrary threshold of 0.1, corresponding to a 10% decrease in the NMR WaterLOGSY signal intensity between the spectra with and without protein, was set to discriminate between binders and non-binders.

truncated LDHB (LDHBtr) = truncated LDHB (LDHBtr) (Homo sapiens, UniProt P07195); assay: Microscale thermophoresis (MST), Example 2, macrocycles against truncated LDHB; assay type: binding; settings: for Kd: MST traces at 10 s to 20 s on time
truncated LDHB (LDHBtr), sequence (P07195 21-334): as above
Procedure: MST measurements were performed on a Nanotemper Monolith NT.115 instrument (NanoTemper Technologies®) using Red-dye-NHS fluorescent labeling. Each LDH sample, purified to homogeneity, was labeled with the Monolith Red-dye-NHS 2nd generation labeling dye (NanoTemper Technologies®), according to the manufacturer's instructions. Measurements were performed in 50 mM sodium phosphate, pH 7.6, and 100 mM NaCl containing 0.05% Tween-20 in premium-treated capillaries (NanoTemper Technologies®). The final concentrations of either labeled protein in the assay were 100 nM. The ligands (NADH and peptides) were titrated in 1:1 dilutions following manufacturer's recommendations. All binding reactions were incubated for 5 min at room temperature after loading into capillaries. Experiments were performed in triplicates using 40% LED power, medium MST power, Laser On time 20 s and Laser Off time 3 s. Peptides were evaluated for their thermophoretic pattern, and Kd's were extracted from raw data at a 10 to 20 s MST on time according to manufacturer's instructions. Regarding interaction of 7 with LDH5, Kd was extracted from the raw fluorescence. A denaturation test was performed accordingly to manufacturer recommendation and excluded any nonspecific spectral interaction between 7 and the red-dye. All Kd's of interacting macrocycles and peptides were obtained in triplicate and corrected by taking into account the molecular weight of the TFA counter ion.

LDHBtr [2] = biological target: T1, LDHBtr; assay: Microscale thermophoresis (MST), Example 1; assay type: binding; settings: linear peptides; read-out: Kd using MST experiment
Procedure: MST measurements were performed on a Nanotemper Monolith NT.115 instrument (Nanotemper Technologies®, GmbH) using Red-dye-NHS fluorescent labeling. Each LDH (WT or truncated) sample, purified to homogeneity, was labeled with the Monolith RED-NHS 2nd generation labeling dye according to the supplied protocol (Nanotemper Technologies®, GmbH). Measurements were performed in 50 mM Na-Phosphate pH 7.6 and 100 mM NaCl containing 0.05% Tween-20 in premium treated capillaries (Nanotemper Technologies®, GmbH). The final concentrations of either labeled protein in the assay were 100 nM. The ligands (NADH and peptides) were titrated in 1:1 dilutions following manufacturer's recommendations. All binding reactions were incubated 5′ at room temperature after loading into capillaries. Experiments were performed in triplicates using 40% LED power and medium MST power, LaserOn time was 20 sec, Laser Off time 3 sec. Linear octapeptides were evaluated for their thermophoretic pattern.

[3] = linear peptides at 800 μM, LDHBtr 15 μM

Molecule | Binding using WaterLOGSY (800 μM) (LDHBtr [1]; [3]) | further results
Ac-ATLKEKLI [Ac-LB8, LB8 structural analogue] | + (binders) | 
GTLKEKLI (LB8-G1) [LB8 structural analogue] | + (binders) | 
CC[C@H](C)[C@H](NC(=O)[C@H](CC(C)C)NC(=O)[C@H](CCCCN)NC(=O)[C@@H]1CSCc2ccc(cc2)CSC[C@H](N)C(=O)N[C@@H]([C@@H](C)O)C(=O)N[C@@H](CC(C)C)C(=O)N[C@@H](CCCCN)C(=O)N1)C(N)=O [MP9, CTLKCKLI] (H-CTLKCKLI-NH2; linker 1-5 via pXylylene; N-terminus assumed) |  | Kd (truncated LDHB (LDHBtr)): 113 µM
ATL(Aib)EKLI (ATL[Aib]EKLI; not fully specified (C-terminus)) [LB8-Aib1, LB8 structural analogue] | + (binders) | 
CC[C@H](C)[C@H](NC(=O)[C@H](C)NC(=O)[C@H](CCCCN)NC(=O)[C@H](CCC(=O)O)NC(=O)[C@H](CCCCN)NC(=O)[C@H](CC(C)C)NC(=O)[C@@H](NC(=O)[C@H](C)N)[C@@H](C)O)C(N)=O [LB8-A6, ATLKEKAI] (H-ATLKEKAI-NH2) |  | Kd (LDHBtr [2]): > 10000 µM
CC[C@H](C)[C@H](NC(=O)[C@H](CC(C)C)NC(=O)[C@H](CCCCN)NC(=O)[C@@H]1CCC(=O)N[C@@H](C)C(=O)N[C@@H]([C@@H](C)O)C(=O)N[C@@H](CC(C)C)C(=O)N[C@@H](CCCCN)C(=O)N1)C(N)=O [MP11, ATLKEKLI] (ATLKEKLI-NH2; lactam N-5) |  | Kd (truncated LDHB (LDHBtr)): 465 µM
CC[C@H](C)[C@H](NC(=O)[C@H](CC(C)C)NC(=O)[C@H](CCCCN)NC(=O)[C@H](CCC(=O)O)NC(=O)[C@H](CCCCN)NC(=O)CNC(=O)[C@@H](NC(=O)[C@H](C)N)[C@@H](C)O)C(N)=O [LB8-G3, ATGKEKLI] (H-ATGKEKLI-NH2) |  | Kd (LDHBtr [2]): > 10000 µM
ATLKEALI (LB8-A5) [LB8 structural analogue] | + (binders) | 
TLKEKLI (LB8-TI7) [LB8-T17, LB8 structural analogue] | − (non-binders) | 
Ac-TLKEKLI [LB8-AcTI7, LB8 structural analogue] | − (non-binders) | 
CC[C@H](C)[C@H](NC(=O)[C@H](CC(C)C)NC(=O)[C@H](CCCCN)NC(=O)[C@@H]1CSCc2ccccc2CSC[C@H](N)C(=O)N[C@@H]([C@@H](C)O)C(=O)N[C@@H](CC(C)C)C(=O)N[C@@H](CCCCN)C(=O)N1)C(N)=O [MP8, CTLKCKLI] (H-CTLKCKLI-NH2; linker 1-5 via oXylylene; N-terminus assumed) |  | Kd (truncated LDHB (LDHBtr)): 25 µM
ATLKDQLIYNLLKEEQTPQ (LA19) [linear polypeptide] | + (binders) | 
CC[C@H](C)[C@H](NC(=O)[C@H](CC(C)C)NC(=O)[C@H](CCCCN)NC(=O)[C@H](CCC(=O)O)NC(=O)[C@@H]1CSCc2cccc(c2)CSC[C@H](N)C(=O)N[C@@H](C)C(=O)N[C@@H]([C@@H](C)O)C(=O)N[C@@H](CC(C)C)C(=O)N1)C(N)=O [MP6, CATLCEKLI] (H-CATLCEKLI-NH2; linker 1-5 via mXylylene) |  | Kd (truncated LDHB (LDHBtr)): > 1000 µM
ATLKAKLI (LB8-A4) [LB8 structural analogue] | + (binders) | 
ATLKEKL (LB8-AL7) [LB8 structural analogue] | − (non-binders) | 
ATLKE(Aib)LI (ATLKE[Aib]LI; not fully specified (C-terminus)) [LB8-Aib2, LB8 structural analogue] | + (binders) | 
ACTLKCKLI (linker 2-6 via α,α'‑bisbromoxylene (inferred)) [LT021, cyclic peptide, cysteines alkylated using α,α′ bisbromoxylene] |  | Binding using WaterLOGSY (800 μM) (LDHBtr [1]; cyclic peptides at 800 μM): + (binders)
ATL(Aib)E(Aib)LI (ATL[Aib]E[Aib]LI; not fully specified (C-terminus)) [LB8-Aib3, LB8 structural analogue] | + (binders) | 
CC[C@H](C)[C@H](NC(=O)[C@H](CC(C)C)NC(=O)[C@H](CCCCN)NC(=O)[C@@H]1CC(=O)NCCCC[C@H](NC(C)=O)C(=O)N[C@@H]([C@@H](C)O)C(=O)N[C@@H](CC(C)C)C(=O)N[C@@H](CCCCN)C(=O)N1)C(N)=O [MP10, Ac-KTLKDKLI] (Ac-KTLKDKLI-NH2; lactam 1-5) |  | Kd (truncated LDHB (LDHBtr)): 142 µM
ATLKEKLA (LB8-A7) [LB8 structural analogue] | + (binders) | 
CC[C@H](C)[C@H](NC(=O)[C@H](CC1CC1)NC(=O)[C@H](CCCCN)NC(=O)[C@@H]1CSc2c(F)c(F)c(c(F)c2F)SC[C@H](N)C(=O)N[C@@H]([C@@H](C)O)C(=O)N[C@@H](CC(C)C)C(=O)N[C@@H](CCCCN)C(=O)N1)C(N)=O [CT-45, CTLKCK(cpA)I] (H-CTLKCK[Ala(cPr)]I-NH2; linker 1-5 via C6F4(1,4-diyl); N-terminus assumed) |  | MST binding to LDHBtr (truncated LDHB (LDHBtr)): unaltered Kd value, or even a slightly improved Kd value
ATAKEKLI (LB8-A2) [LB8 structural analogue] | + (binders) | 
ACLKECLI [VS-142-BisAlk, cyclic peptide, cysteines alkylated using α,α′ bisbromoxylene] |  | Binding using WaterLOGSY (800 μM) (LDHBtr [1]; cyclic peptides at 800 μM): + (binders)
AALKEKLI [LB8-A1, LB8 structural analogue] | − (non-binders) | 
ATLAEKLI (LB8-A3) [LB8 structural analogue] | + (binders) | 
ATLAEALI (LB8-A3-A5) [LB8 structural analogue] | + (binders) | 
CC[C@H](C)[C@H](NC(=O)[C@H](CC(C)C)NC(=O)[C@H](CCCCN)NC(=O)[C@@H]1CSc2c(F)c(F)c(c(F)c2F)SC[C@H](N)C(=O)N[C@@H]([C@@H](C)O)C(=O)N[C@@H](CC(C)(C)C)C(=O)N[C@@H](CCCCN)C(=O)N1)C(N)=O [CT-44, CT(mlL)KCKLI] (H-CT[tBuAla]KCKLI-NH2; linker 1-5 via C6F4(1,4-diyl); N-terminus assumed) |  | MST binding to LDHBtr (truncated LDHB (LDHBtr)): did not affect the binding properties
ATLKEKLG (LB8-G8) [LB8 structural analogue] | + (binders) | 

More lines, main results first:

Binding using WaterLOGSY (800 μM) (LDHBtr [1]; [3]) | Molecule | further results
+ (binders) | ATLKDQLI [LA8, linear polypeptide] | 
+ (binders) | CC[C@H](C)[C@H](NC(=O)[C@H](CC(C)C)NC(=O)[C@H](CCCCN)NC(=O)[C@H](CCC(=O)O)NC(=O)[C@H](CCCCN)NC(=O)[C@H](CC(C)C)NC(=O)[C@@H](NC(=O)[C@H](C)N)[C@@H](C)O)C(=O)N[C@@H](C)C(=O)N1CCC[C@H]1C(=O)N[C@H](C(=O)N[C@@H](C)C(=O)N[C@@H](CCC(=O)O)C(N)=O)C(C)C [LB13, ATLKEKLIAPVAE] (H-ATLKEKLIAPVAE-NH2; N-terminus assumed) | NMR WaterLOGSY signal / saturation transfer (LDHBtr [1]): exact same NMR WaterLOGSY spectrum than LB19
